Measured values reported in IntAct's records for PubMed 18829461.

B1: Protein phosphatase 1A (Homo sapiens), P35813 (parent)
chain: MGAFLDKPKMEKHNAQGQGNGLRYGLSSMQGWRVEMEDAHTAVIGLPSGLESWSFFAVYDGHAGSQVAKYCCEHLLDHITNNQDFKGSAGAPSVENVKNGIRTGFLEIDEHMRVMSEKKHGADRSGSTAVGVLISPQHTYFINCGDSRGLLCRNRKVHFFTQDHKPSNPLEKERIQNAGGSVMIQRVNGSLAVSRALGDFDYKCVHGKGPTEQLVSPEPEVHDIERSEEDDQFIILACDGIWDVMGNEELCDFVRSRLEVTDDLEKVCNEVVDTCLYKGSRDNMSVILICFPNAPKVSPEAVKKEAELDKYLECRVEEIIKKQGEGVPDLVHVMRTLASENIPSLPPGGELASKRNVIEAVYNRLNPYKNDDTDSTSTDDMW

Variants of: B1
Conditions: with cdk9_human CDK9, P50750
Chain of cdk9_human CDK9, P50750 (P50750 whole entry): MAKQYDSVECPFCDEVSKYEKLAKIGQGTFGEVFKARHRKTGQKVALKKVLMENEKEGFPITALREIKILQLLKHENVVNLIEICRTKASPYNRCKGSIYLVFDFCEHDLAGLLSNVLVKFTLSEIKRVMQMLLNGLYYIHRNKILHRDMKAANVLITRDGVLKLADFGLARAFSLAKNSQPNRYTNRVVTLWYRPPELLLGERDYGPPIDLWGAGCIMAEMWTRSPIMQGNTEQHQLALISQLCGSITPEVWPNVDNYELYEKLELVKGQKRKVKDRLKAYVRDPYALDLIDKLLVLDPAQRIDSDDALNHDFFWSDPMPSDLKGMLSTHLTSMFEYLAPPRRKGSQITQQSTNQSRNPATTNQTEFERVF

Row | effect of a mutation on the interaction | Variant
1 | with no effect | MGAFLDKPKMEKHNAQGQGNGLRYGLSSMQGWRVEMEDAHTAVIGLPSGLESWSFFAVYDGHAGSQVAKYCCEHLLDHITNNQDFKGSAGAPSVENVKNGIRTGFLEIDEHMRVMSEKKHGADRSGSTAVGVLISPQHTYFINCGDSRGLLCRNRKVHFFTQDHKPSNPLEKERIQNAGGSVMIQRVNGSLAVSRALGDFDYKCVHGKGPTEQLVSPEPEVHDIERSEEDDQFIILACNGIWDVMGNEELCDFVRSRLEVTDDLEKVCNEVVDTCLYKGSRDNMSVILICFPNAPKVSPEAVKKEAELDKYLECRVEEIIKKQGEGVPDLVHVMRTLASENIPSLPPGGELASKRNVIEAVYNRLNPYKNDDTDSTSTDDMW [D239N]
